Assay results reported in patent US20100221257A1 (AstraZeneca / MedImmune, published 2010).

T1: human IL-1R1, endogenous on human cells (HeLa cells; whole blood) (human, UniProt P14778 18-569)
T1 sequence (looked up): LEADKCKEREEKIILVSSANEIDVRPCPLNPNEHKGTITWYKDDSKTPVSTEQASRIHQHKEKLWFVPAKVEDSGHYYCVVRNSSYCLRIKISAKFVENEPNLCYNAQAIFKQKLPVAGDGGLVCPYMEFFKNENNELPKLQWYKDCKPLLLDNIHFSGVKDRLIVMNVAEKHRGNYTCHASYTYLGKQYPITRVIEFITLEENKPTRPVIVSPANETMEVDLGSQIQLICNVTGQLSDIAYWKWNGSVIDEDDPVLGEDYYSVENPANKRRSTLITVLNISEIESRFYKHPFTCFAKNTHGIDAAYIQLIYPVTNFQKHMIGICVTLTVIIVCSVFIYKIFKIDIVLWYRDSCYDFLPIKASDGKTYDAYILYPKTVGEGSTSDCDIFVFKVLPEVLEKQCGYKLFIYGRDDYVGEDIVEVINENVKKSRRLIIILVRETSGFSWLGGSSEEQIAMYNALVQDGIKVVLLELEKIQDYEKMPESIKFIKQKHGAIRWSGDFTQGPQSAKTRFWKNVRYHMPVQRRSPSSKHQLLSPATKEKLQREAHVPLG

T2: human recombinant IL1sRII (human, UniProt P27930 14-343)
T2 construct: also called Human IL1sRII
T2 sequence (looked up): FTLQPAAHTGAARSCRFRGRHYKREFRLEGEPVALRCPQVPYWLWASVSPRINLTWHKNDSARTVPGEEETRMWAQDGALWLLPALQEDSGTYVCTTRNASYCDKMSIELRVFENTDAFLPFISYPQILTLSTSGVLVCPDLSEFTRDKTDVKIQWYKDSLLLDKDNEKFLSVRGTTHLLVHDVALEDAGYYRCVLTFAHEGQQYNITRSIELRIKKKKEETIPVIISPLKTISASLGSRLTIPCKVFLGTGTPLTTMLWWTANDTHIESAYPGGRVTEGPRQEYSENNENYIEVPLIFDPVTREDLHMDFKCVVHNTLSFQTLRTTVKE

T3: human recombinant IL-1R6/IL1 R rp2/Fc (human, UniProt Q9HB29 20-335, limits assumed)
T3 construct: Bought; also called Human IL1R6Fc; not shown: Fc of the bought fusion protein, not described
T3 sequence (looked up): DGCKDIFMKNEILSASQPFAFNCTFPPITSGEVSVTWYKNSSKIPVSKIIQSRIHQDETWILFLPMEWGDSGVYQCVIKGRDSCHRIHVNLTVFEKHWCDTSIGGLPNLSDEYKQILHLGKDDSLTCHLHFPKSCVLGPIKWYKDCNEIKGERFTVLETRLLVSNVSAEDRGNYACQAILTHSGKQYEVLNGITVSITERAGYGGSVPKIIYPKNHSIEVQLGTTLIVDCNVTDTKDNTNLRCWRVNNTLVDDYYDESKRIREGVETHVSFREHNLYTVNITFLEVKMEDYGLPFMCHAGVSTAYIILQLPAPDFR


Tests used:
[1] = target: T1, human IL-1R1, endogenous on human cells …; assay: cell-based or functional assay
[2] = target: T1, human IL-1R1, endogenous on human cells …; assay: cell-based or functional assay; remark: listed apart in the source
[3] = target: T2, human recombinant IL1sRII; assay: DELFIA epitope competition; no inhibition of biotinylated huIL-1RFc binding to the adsorbed IgG
Description: (§1) Titrations of non biotinylated purified human recombinant IL1sRII (R&D Systems), human recombinant IL-1R6/IL1 R rpt/Fc (R&D Systems), human recombinant IL18R alpha/IL-1 R5/Fc (R&D systems) and recombinant human IL-1 R4 (ST2)/Fc (R&D systems) were tested in each assay to establish the potency for each structurally related family member, as measured by IC₅₀ values in the assay.
(§2) Purified IgG were adsorbed onto 96-well Maxisorp microtitre plates (Nunc) in PBS at a concentration which gave a significant signal when biotinylated human HIS IL1RFc was added at approximately its estimated KD for that particular IgG. Excess IgG was washed away with PBS-Tween (0.1% v/v) and the wells were blocked with non-fat dried milk in PBS (3% w/v) for 1 h. […] Non-biotinylated human HIS IL1RFc was included as a positive control. 25 μl of this dilution series was added to the blocked IgG assay plate.
(§3) 25 μl of 1.4 nM biotinylated human HIS IL1RFc was added to the assay plate. The plate was then sealed and incubated at room temperature for 2 h. Unbound antigen was removed by washing with PBS-Tween (0.1% v/v), while the remaining biotinylated human IL1RFc was detected by streptavidin-Europium3+ conjugate (DELFIA® detection, PerkinElmer). Time-resolved fluorescence was measured at 620 nm on an EnVision plate reader (PerkinElmer). Fluorescence data was plotted as europium counts. IC₅₀ values were determined using GraphPad Prism software by curve fitting using a four-parameter logistic equation (Equation 3).

[4] = target: T3, human recombinant IL-1R6/IL1 R rp2/Fc; assay: as above
Description: as §1, §2, §3

[5] = target: T4, human histidine tagged (HIS) IL1RFc fusion protein (human); assay: HTRF receptor-ligand assay, IgG inhibiting HIS FLAG IL-1Ra binding to cryptate labelled human HIS IL1RFc
T4 construct: Biotinylated or cryptate labelled in some assays; also called human HIS IL1RFc; huIL-1R1-Fc
Description: The ability of lead antibodies to inhibit IL-1Ra to IL-1R1 was assessed in a receptor-ligand binding HTRF® (Homogeneous Time-Resolved Fluorescence) assay format for inhibition of HIS FLAG tagged human IL1Ra (In house, E. Coli expressed; HIS FLAG IL-1RA) binding to human histidine tagged (HIS) IL1RFc fusion protein (in house), as described in the Materials and methods section.
A titration of inhibitor was used in order to establish the clone potency as measured by IC₅₀ values in the assay. All dilutions were carried out in assay buffer as for ligand binding assay above. 5 μl of a titration of inhibitor was added to a 384 well low volume assay plate (Costar 3676). This was then followed by addition of 0.4 nM cryptate labelled HIS IL1RFc. Assay plates were then sealed and incubated at room temperature in dark for 1 hour.

Binder | mean IC50 for the 6 donors, inhibition of IL-1β induced IL-6 production in human whole blood [1] [pM] | IC50, inhibition of IL-1β induced IL-6 production in human whole blood, donor 1 [2] [pM] | IC50, inhibition of IL-1β induced IL-6 production in human whole blood, donor 2 [2] [pM] | IC50, inhibition of IL-1β induced IL-6 production in human whole blood, donor 3 [2] [pM] | IC50, inhibition of IL-1β induced IL-6 production in human whole blood, donor 4 [2] [pM] | IC50, inhibition of IL-1β induced IL-6 production in human whole blood, donor 5 [2] [pM] | IC50, inhibition of IL-1β induced IL-6 production in human whole blood, donor 6 [2] [pM] | binding result [3] | binding result [4] | IC50 [5] [pM]
Antibody 6GL IgG2 (antibody, V domains shown, Germlined IgG2, lambda light chain; also called Antibody 6 IgG2; 28PL GL) VH: not shown VL: QSVLTQPPSVSGAPGQRVTISCTGSSSNIGAGYDVHWYQQLPGTAPKLLIYGDTHRPSGVPDRFSGSKSGTSASLAITGLQAEDEADYYCQSYDTVRLHHVFGGGTKLTVL | 229 | 91 | 295 | 116 | 309 | 167 | 321 | no binding | no binding | 181
Antibody 8GL IgG2 (antibody, V domains shown, Germlined IgG2, lambda light chain) VH: not shown VL: QSVLTQPPSVSGAPGQRVTISCTGSSSNIGAGYDVHWYQQLPGTAPKLLIYGDTHRPSGVPDRFSGSKSGTSASLAITGLQAEDEADYYCQSYDTHLVAHVFGGGTKLTVL |  |  |  |  |  |  |  | no binding | no binding | 363
Antibody 10GL IgG2 (antibody, V domains shown, Germlined IgG2, lambda light chain) VH: not shown VL: QSVLTQPPSVSGAPGQRVTISCTGSSSNIGAGYDVHWYQQLPGTAPKLLIYGDTHRPSGVPDRFSGSKSGTSASLAITGLQAEDEADYYCQSYDTRADDAHFGGGTKLTVL |  |  |  |  |  |  |  | no binding | no binding | 323
